In patent publication US11485769B2, “Peptides and combination of peptides for use in immunotherapy and methods for generating scaffolds for the use against pancreatic cancer and other cancers” (Immatics Biotechnologies GmbH, priority 2015, dated 2022):

The substances below were run against HLA-A*02:01 (Homo sapiens, UniProt P04439, D140Y/D185E/D98H/E176V/E277Q/G131W/G231S/I119V/I121R/I166T/I218V/L300P/L318F/N151K/N90K/P208A/P217A/Q86G/Q94H/R138H/R169H/T345S) (assay: MHC binding assay (UV-ligand exchange, beta2m ELISA, peptide exchange yield)). Settings: binding to HLA-A*02:01 ranged by peptide exchange yield, β2m ELISA.
Excerpt: Candidate peptides for T cell based therapies according to the present invention were further tested for their MHC binding capacity (affinity). The individual peptide-MHC complexes were produced by UV-ligand exchange, where a UV-sensitive peptide is cleaved upon UV-irradiation, and exchanged with the peptide of interest as analyzed. Only peptide candidates that can effectively bind and stabilize the peptide-receptive MHC molecules prevent dissociation of the MHC complexes. To determine the yield of the exchange reaction, an ELISA was performed based on the detection of the light chain (β2m) of stabilized MHC complexes. The assay was performed as generally described in Rodenko et al. (Rodenko et al., 2006).
96 well MAXISorp plates (NUNC) were coated over night with 2 ug/ml streptavidin in PBS at room temperature, washed 4× and blocked for 1 h at 37° C. in 2% BSA containing blocking buffer. Refolded HLA-A*02:01/MLA-001 monomers served as standards, covering the range of 15-500 ng/ml. Peptide-MHC monomers of the UV-exchange reaction were diluted 100 fold in blocking buffer. Samples were incubated for 1 h at 37° C., washed four times, incubated with 2 ug/ml HRP conjugated anti-μ2m for 1h at 37° C., washed again and detected with TMB solution that is stopped with […]. Absorption was measured at 450 nm. Candidate peptides that show a high exchange yield (preferably higher than 50%, most preferred higher than 75%) are generally preferred for a generation and production of antibodies or fragments thereof, and/or T cell receptors or fragments thereof, as they show sufficient avidity to the MHC molecules and prevent dissociation of the MHC complexes.
MHC class I binding scores. Binding of HLA-class I restricted peptides to HLA-A*02:01 was ranged by peptide exchange yield: ≥10%=+; ≥20%=++; ≥50=+++; >75%=++++

Substance	Peptide exchange (MHC class I binding score)
53 (LLWDPSTGKQV; listed as Homo sapiens) [compound 53]	“+++” (≥50=+++)
54 (LTQPGPIASA; listed as Homo sapiens) [compound 54]	“+++” (≥50=+++)
55 (NLAPAPLNA; listed as Homo sapiens) [compound 55]	“++” (≥20%=++)
56 (NLIGVTAEL; listed as Homo sapiens) [compound 56]	“++” (≥20%=++)
57 (RLSELGITQA; listed as Homo sapiens) [compound 57]	“+++” (≥50=+++)
58 (RQYPWGVVQV; listed as Homo sapiens) [compound 58]	“++” (≥20%=++)
59 (SLSESFFMV; listed as Homo sapiens) [compound 59]	“+++” (≥50=+++)
60 (SLWEDYPHV; listed as Homo sapiens) [compound 60]	“++++” (>75%=++++)
61 (SMYDGLLQA; listed as Homo sapiens) [compound 61]	“++” (≥20%=++)
62 (SVFPGARLL; listed as Homo sapiens) [compound 62]	“+” (≥10%=+)
63 (SVTGIIVGV; listed as Homo sapiens) [compound 63]	“++++” (>75%=++++)
64 (TLFSEPKFAQV; listed as Homo sapiens) [compound 64]	“++++” (>75%=++++)
65 (TLNEKLTAL; listed as Homo sapiens) [compound 65]	“+++” (≥50=+++)
67 (VIWGTDVNV; listed as Homo sapiens) [compound 67]	“++++” (>75%=++++)
68 (VLFDVTGQV; listed as Homo sapiens) [compound 68]	“+++” (≥50=+++)
69 (VLFSGSLRL; listed as Homo sapiens) [compound 69]	“+++” (≥50=+++)
70 (VLGVIWGV; listed as Homo sapiens) [compound 70]	“++++” (>75%=++++)
71 (VLLPEGGITAI; listed as Homo sapiens) [compound 71]	“+++” (≥50=+++)
72 (VMASPGGLSAV; listed as Homo sapiens) [compound 72]	“+++” (≥50=+++)
73 (VMVDGKPVNL; listed as Homo sapiens) [compound 73]	“++++” (>75%=++++)

Substance	Peptide exchange (MHC class I binding score)
74 (YIDKDLEYV; listed as Homo sapiens) [compound 74]	“+++” (≥50=+++)
77 (RLFPGSSFL; listed as Homo sapiens) [compound 77]	“++++” (>75%=++++)
78 (SLQDTEEKSRS; listed as Homo sapiens) [compound 78]	“+++” (≥50=+++)
79 (VVYEGQLISI; listed as Homo sapiens) [compound 79]	“+++” (≥50=+++)
80 (LLPGTEYVVSV; listed as Homo sapiens) [compound 80]	“+++” (≥50=+++)
81 (VVYDDSTGLIRL; listed as Homo sapiens) [compound 81]	“+++” (≥50=+++)
82 (ALIAEGIAL; listed as Homo sapiens) [compound 82]	“+++” (≥50=+++)
83 (ALSKEIYVI; listed as Homo sapiens) [compound 83]	“+++” (≥50=+++)
84 (FILPIGATV; listed as Homo sapiens) [compound 84]	“++++” (>75%=++++)
85 (FLSDGTIISV; listed as Homo sapiens) [compound 85]	“++++” (>75%=++++)
86 (GLGDFIFYSV; listed as Homo sapiens) [compound 86]	“++++” (>75%=++++)
87 (GLLPALVAL; listed as Homo sapiens) [compound 87]	“+++” (≥50=+++)
88 (IIDDTIFNL; listed as Homo sapiens) [compound 88]	“+++” (≥50=+++)
89 (KLADIQIEQL; listed as Homo sapiens) [compound 89]	“+++” (≥50=+++)
90 (KLLTPITTL; listed as Homo sapiens) [compound 90]	“+++” (≥50=+++)
91 (LLFNDVQTL; listed as Homo sapiens) [compound 91]	“+++” (≥50=+++)
92 (YLTNEGIAHL; listed as Homo sapiens) [compound 92]	“++++” (>75%=++++)
93 (SIDSEPALV; listed as Homo sapiens) [compound 93]	“+++” (≥50=+++)
94 (VMMEEFVQL; listed as Homo sapiens) [compound 94]	“+++” (≥50=+++)
95 (ALADDDFLTV; listed as Homo sapiens) [compound 95]	“+++” (≥50=+++)

Substance	Peptide exchange (MHC class I binding score)
96 (ALAPATGGGSLLL; listed as Homo sapiens) [compound 96]	“+++” (≥50=+++)
97 (ALDDMISTL; listed as Homo sapiens) [compound 97]	“+++” (≥50=+++)
98 (ALDQKVRSV; listed as Homo sapiens) [compound 98]	“++” (≥20%=++)
99 (ALESFLKQV; listed as Homo sapiens) [compound 99]	“+++” (≥50=+++)
100 (ALFGAGPASI; listed as Homo sapiens) [compound 100]	“+++” (≥50=+++)
101 (ALVEENGIFEL; listed as Homo sapiens) [compound 101]	“+++” (≥50=+++)
102 (ALYPGTDYTV; listed as Homo sapiens) [compound 102]	“+++” (≥50=+++)
103 (AVAAVLTQV; listed as Homo sapiens) [compound 103]	“+++” (≥50=+++)
104 (FLQPDLDSL; listed as Homo sapiens) [compound 104]	“+++” (≥50=+++)
105 (FLSEVFHQA; listed as Homo sapiens) [compound 105]	“+++” (≥50=+++)
106 (FVWSGTAEA; listed as Homo sapiens) [compound 106]	“+++” (≥50=+++)
107 (FVYGGPQVQL; listed as Homo sapiens) [compound 107]	“+++” (≥50=+++)
109 (ILASVILNV; listed as Homo sapiens) [compound 109]	“++++” (>75%=++++)
110 (ILLTGTPAL; listed as Homo sapiens) [compound 110]	“+++” (≥50=+++)
111 (LLLAAARLAAA; listed as Homo sapiens) [compound 111]	“+++” (≥50=+++)
112 (LLSDVRFVL; listed as Homo sapiens) [compound 112]	“+++” (≥50=+++)
113 (LMMSEDRISL; listed as Homo sapiens) [compound 113]	“+++” (≥50=+++)
114 (SLFPHNPQFI; listed as Homo sapiens) [compound 114]	“+++” (≥50=+++)
115 (SLMDPNKFLLL; listed as Homo sapiens) [compound 115]	“+++” (≥50=+++)
116 (SMMDPNHFL; listed as Homo sapiens) [compound 116]	“++++” (>75%=++++)
